Test results published in paper PMC12295762, “Role of Individual Amino Acid Residues Directly Involved in Damage Recognition in Active Demethylation by ABH2 Dioxygenase”.
Where a chain is given by its changes, count along the chain named.

T1: ABH2 S125A (human, UniProt Q6NS38 1-261, S125A)
T1 sequence: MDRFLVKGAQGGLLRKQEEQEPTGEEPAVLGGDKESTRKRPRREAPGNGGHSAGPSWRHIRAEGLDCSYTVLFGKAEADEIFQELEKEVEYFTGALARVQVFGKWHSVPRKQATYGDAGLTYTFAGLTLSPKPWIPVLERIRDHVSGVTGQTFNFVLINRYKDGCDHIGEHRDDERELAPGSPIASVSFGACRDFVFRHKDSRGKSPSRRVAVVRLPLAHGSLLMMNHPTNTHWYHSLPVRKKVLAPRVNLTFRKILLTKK

T2: ABH2 V99A (human, UniProt Q6NS38 1-261, V99A)
T2 sequence: T1 sequence with V99A, A125S

T3: ABH2 R110A (human, UniProt Q6NS38 1-261, R110A)
T3 sequence: T1 sequence with R110A, A125S

T4: ABH2 F124A (human, UniProt Q6NS38 1-261, F124A)
T4 sequence: T1 sequence with F124A, A125S

T5: ABH2 R172A (human, UniProt Q6NS38 1-261, R172A)
T5 sequence: T1 sequence with A125S, R172A

T6: ABH2 E175A (human, UniProt Q6NS38 1-261, E175A)
T6 sequence: T1 sequence with A125S, E175A

B1: m1A dsDNA (dsDNA)
DNA 1: AGTTCAATGATCTTCAT
DNA 2: ATGAAGATCATTGAACT
modifications: N1-methyladenine (m1A) at position 10 of strand 1
B2: m3C dsDNA (dsDNA)
DNA 1: AGTTCAATGATCTTCAT
DNA 2: ATGAAGATCATTGAACT
modifications: N3-methylcytosine (m3C) at position 12 of strand 1

Key:
Test in all cases: EMSA; 0.5 mM αKG, 10 mM Mg2+, 2 mM ascorbate; 50 mM Tris-HCl pH 8.0, 50 mM KCl, 10 mM MgCl2, 0.5 mM αKG, 2 mM sodium ascorbate; 1.2 µM DNA, 0.4-12.8 µM protein; 10 min 37 °C then 5 min on ice; 10% native PAGE, 0.5x TBE, 4-8 °C; Hill fit
Settings in all cases: protein: recombinant; tags: N-terminal His6; label: 5'-FAM on strand 1; blunt
ABH2 S125A = target: T1, ABH2 S125A
ABH2 V99A = target: T2, ABH2 V99A
ABH2 R110A = target: T3, ABH2 R110A
ABH2 F124A = target: T4, ABH2 F124A
ABH2 R172A = target: T5, ABH2 R172A
ABH2 E175A = target: T6, ABH2 E175A

Binder | Kd (ABH2 S125A) [µM] | Kd (ABH2 V99A) [µM] | Kd (ABH2 R110A) [µM] | Kd (ABH2 F124A) [µM] | Kd (ABH2 R172A) [µM] | Kd (ABH2 E175A) [µM]
B1 | 2.7 ± 0.3 | 3.2 ± 0.3 | 3.4 ± 0.2 | 3.1 ± 0.3 | 2.1 ± 0.08 | 2.44 ± 0.06
B2 | 4 ± 0.3 | 2.5 ± 0.6 | 4 ± 0.3 | 4.4 ± 0.7 | 2.6 ± 0.4 | 2.96 ± 0.04
